What all share (test): EMSA
Common to all, as to conditions: 10 mM Tris-Cl pH 8.0, 1 mM DTT, 10% glycerol, 5 mM MgCl2, 10 mM KCl, with 50 mM acetyl phosphate when indicated; EMSA 30 min at 37 C; footprint at room …

The test system of data set [1] is 6His-BfmR (Pseudomonas aeruginosa MPAO1).
Data set [2] has the same test system. The source holds these as a separate data set.
Data set [3] relates to 6His-BfmR D55A (Pseudomonas aeruginosa MPAO1).

Drawing on paper PMC4148453, this text covers Kd for one substance.

“And” between values parts separate entries of the source, which are not always exact repeats. Equal values may be shown once.

As to bfmR promoter, the Kd is 200 nM and > 600 nM in data set [1]; less than 400 nM in data set [2]; greater than 600 nM in data set [3].
